# Source: patent US20230053493A1, “ONE STEP METHODS, KITS, AND SYSTEMS FOR THE MEASUREMENT OF CONCENTRATIONS OF UNBOUND BILIRUBIN IN BIOLOGICAL FLUIDS” (priority 2019, published 2023)
# Substitutions are numbered along the chain they refer to. Where a name gives a salt, the structure may show the parent alone.
# B1: 76C-C2XH11-700DXM: rIFABP mutein MGI-KR14-14R 18L 27A 38V 60R 73F 76C 106L 115R 117D 131D-C2XH11 labeled with LICOR 700DX-maleimide (protein)
# chain: MGIAFDGTWRVDRNENRERFLERMGINVVARRLGAHDNLRVTITQEGNRFTVRESSNFRNIDRVFELGVDFAYSLFDGCELTGTWTMEGNRLVGRFRRVDNGRELIAVLEISGNELIRTDTYEGVEARRIFRRDRGAASHHHHHHSHRATPNTSPHHHHHHH
# modifications: LICOR 700DX-maleimide label; mutated bf sensitive probe
# notes: rIFABP mutein MGI-KR14-14R 18L 27A 38V 60R 73F 76C 106L 115R 117D 131D-C2XH11 labeled with LICOR 700DX-maleimide
# B2: 30C-C2XH11-700DXM: rIFABP mutein MGI-KR14-14R 18L 27A 30C 38V 60R 73F 106L 115R 117D 131D-C2XH11 labeled with LICOR 700DX-maleimide (protein)
# chain: B1 chain with L33C, C79T
# modifications: C2XH11 tag; LICOR 700DX-maleimide label; mutated bf sensitive probe
# notes: rIFABP mutein MGI-KR14-14R 18L 27A 30C 38V 60R 73F 106L 115R 117D 131D-C2XH11 labeled with LICOR 700DX-maleimide
# B3: 33C-C2XH11-700DXM: rIFABP mutein MGI-KR14-14R 18L 27A 33C 38V 60R 73F 106L 115R 117D 131D-C2XH11 labeled with LICOR 700DX-maleimide (protein)
# chain: B1 chain with H36C, C79T
# modifications: C2XH11 tag; LICOR 700DX-maleimide label; mutated bf sensitive probe
# notes: rIFABP mutein MGI-KR14-14R 18L 27A 33C 38V 60R 73F 106L 115R 117D 131D-C2XH11 labeled with LICOR 700DX-maleimide
# B4: 98C-C2XH11-700DXM: rIFABP mutein MGI-KR14-14R 18L 27A 38V 60R 73F 98C 106L 115R 117D 131D-C2XH11 labeled with LICOR 700DX-maleimide (protein)
# chain: B1 chain with C79T, N101C
# modifications: LICOR 700DX-maleimide label; mutated bf sensitive probe
# notes: rIFABP mutein MGI-KR14-14R 18L 27A 38V 60R 73F 98C 106L 115R 117D 131D-C2XH11 labeled with LICOR 700DX-maleimide
# B5: 29C-C2XH11-700DXM: rIFABP mutein MGI-KR14-14R 18L 27A 29C 38V 60R 73F 106L 115R 117D 131D-C2XH11 labeled with LICOR 700DX-maleimide (protein)
# chain: B1 chain with R32C, C79T
# modifications: C2XH11 tag; LICOR 700DX-maleimide label; mutated bf sensitive probe
# notes: rIFABP mutein MGI-KR14-14R 18L 27A 29C 38V 60R 73F 106L 115R 117D 131D-C2XH11 labeled with LICOR 700DX-maleimide
# B6: 26C-C2XH11-700DXM: rIFABP mutein MGI-KR14-14R 18L 26C 27A 38V 60R 73F 106L 115R 117D 131D-C2XH11 labeled with LICOR 700DX-maleimide (protein)
# chain: B1 chain with V29C, C79T
# modifications: C2XH11 tag; LICOR 700DX-maleimide label; mutated bf sensitive probe
# notes: rIFABP mutein MGI-KR14-14R 18L 26C 27A 38V 60R 73F 106L 115R 117D 131D-C2XH11 labeled with LICOR 700DX-maleimide
# B7: 74C-C2XH11-700DXM: rIFABP mutein MGI-KR14-14R 18L 27A 38V 60R 73F 74C 106L 115R 117D 131D-C2XH11 labeled with LICOR 700DX-maleimide (protein)
# chain: B1 chain with D77C, C79T
# modifications: C2XH11 tag; LICOR 700DX-maleimide label; mutated bf sensitive probe
# notes: rIFABP mutein MGI-KR14-14R 18L 27A 38V 60R 73F 74C 106L 115R 117D 131D-C2XH11 labeled with LICOR 700DX-maleimide
# B8: 24C- C2XH11-700DXM: rIFABP mutein MGI-KR14-14R 18L 24C 27A 38V 60R 73F 106L 115R 117D 131D-C2XH11 labeled with LICOR 700DX-maleimide (protein)
# chain: B1 chain with N27C, C79T
# modifications: C2XH11 tag; LICOR 700DX-maleimide label; mutated bf sensitive probe
# notes: rIFABP mutein MGI-KR14-14R 18L 24C 27A 38V 60R 73F 106L 115R 117D 131D-C2XH11 labeled with LICOR 700DX-maleimide
# B9: 25C-C2XH11-700DXM: rIFABP mutein MGI-KR14-14R 18L 25C 27A 38V 60R 73F 106L 115R 117D 131D-C2XH11 labeled with LICOR 700DX-maleimide (protein)
# chain: B1 chain with V28C, C79T
# modifications: C2XH11 tag; LICOR 700DX-maleimide label; mutated bf sensitive probe
# notes: rIFABP mutein MGI-KR14-14R 18L 25C 27A 38V 60R 73F 106L 115R 117D 131D-C2XH11 labeled with LICOR 700DX-maleimide
# B10: 54C-C2XH11-700DXM: rIFABP mutein MGI-KR14-14R 18L 27A 38V 54C 60R 73F 106L 115R 117D 131D-C2XH11 labeled with LICOR 700DX-maleimide (protein)
# chain: B1 chain with N57C, C79T
# modifications: C2XH11 tag; LICOR 700DX-maleimide label; mutated bf sensitive probe
# notes: rIFABP mutein MGI-KR14-14R 18L 27A 38V 54C 60R 73F 106L 115R 117D 131D-C2XH11 labeled with LICOR 700DX-maleimide
# B11: 27C-C2XH11-700DXM: rIFABP mutein MGI-KR14-14R 18L 27C 38V 60R 73F 106L 115R 117D 131D-C2XH11 labeled with LICOR 700DX-maleimide (protein)
# chain: B1 chain with A30C, C79T
# modifications: C2XH11 tag; LICOR 700DX-maleimide label; mutated bf sensitive probe
# notes: rIFABP mutein MGI-KR14-14R 18L 27C 38V 60R 73F 106L 115R 117D 131D-C2XH11 labeled with LICOR 700DX-maleimide
# B12: 97C-C2XH11-700DXM: rIFABP mutein MGI-KR14-14R 18L 27A 38V 60R 73F 97C 106L 115R 117D 131D-C2XH11 labeled with LICOR 700DX-maleimide (protein)
# chain: B1 chain with C79T, D100C
# modifications: LICOR 700DX-maleimide label; mutated bf sensitive probe
# notes: rIFABP mutein MGI-KR14-14R 18L 27A 38V 60R 73F 97C 106L 115R 117D 131D-C2XH11 labeled with LICOR 700DX-maleimide
# System: not listed separately
# Assay: Calibration of free NIR probe/sensor by bilirubin titration (cuvette fluorometry, fit with equation 1)
# Assay type: binding
# Conditions: degree to which the probe is quenched by bilirubin binding; effect of fluorophore position
# Excerpt: Embodiments provided herein are directed to methods of calibrating the bilirubin probes by mixing in an aqueous media the sensor with samples of bilirubin of increasing total bilirubin concentrations (BT), measuring the ratio of fluorescence intensities R of the sensor at each concentration, and determining the calibration parameters (Kd, Rm, and Ro) from the measured fluorescence by fitting with the equation (1), wherein R is the measured fluorescence ratio (Iλ1/Iλ2), where hi is the fluorescence intensity from the first fluorophore at wavelength λ1 and Iλ2 is the fluorescence intensity from the second fluorophore at wavelength λ2, both λ1 and λ2 have background subtracted, and Ro is the ratio in the absence of bilirubin. BT is the total bilirubin concentration and PT is the concentration of the sensor, r is the Iλ2/Iλ1 ratio of the bilirubin sensitive probe's fluorescence in the absence of the second fluorophore, Kd is the equilibrium dissociation constant of the sensor and Rm is the ratio R extrapolated to infinite BT. Equation (1) is used in some embodiments rather than equation (5) of U.S. Pat. No. 9,529,003 when Rm is >0.
# Also described are methods for calibrating and using a bilirubin sensor described herein so that Bf concentrations can be determined in approximately 5 μl of undiluted blood samples in a single step. These small volume blood samples are applied to the disposable plastic microfluidic cartridges containing the dried bilirubin ratio sensor. The bilirubin sensor containing cartridges are preferably used for a single measurement and the calibration parameters (Kd, Rm, Ro) must be determined within a “lot” of identically manufactured cartridges. The calibration is performed by titrating a sufficient number of cartridges with aqueous samples of increasing well-defined Bf levels. Because plastics bind unbound bilirubin and because surface to volume ratio in the microfluidics channel is large, the calibration Bf samples must be highly buffered by complexes with albumin. The Bf concentrations of each complex are determined by measuring each by cuvette fluorometry using a calibrated sensor free in aqueous solutions. The free sensor is calibrated by titration with aqueous solutions of bilirubin where the concentrations of these unbound bilirubin solutions are determined by absorbance. The free probe's response (R values versus Bf concentrations) are used to determine the free sensor's calibration (Kd, Rm, Ro) (equation 1). The calibrated free sensor mixed with samples of each of the BR:HSA complexes is used to determine the Bf concentrations of each complexes by cuvette fluorometry using equation 2. These calibrated complexes are used to determine the binding parameters of the disposable cartridges including the equilibrium dissociation constant (Kd), the minimum fluorescence ratio (Rm) and the initial ratio (Ro) under defined conditions, of temperature, pH, and solution composition, suitable for blood samples. Binding isotherms are performed in aqueous buffer by measuring the change in fluorescence of the bilirubin sensor in response to increasing bilirubin concentrations (“titration data”). The set of fluorescence responses at each bilirubin concentration are fitted with an appropriate equation (“calibration equation (3)”) that correctly describes the fluorescence response as a function of the Bf concentration, the, specific spectroscopic characteristics, and the Kd.
# All responder probes labeled with LICOR 700DX-maleimide and non-responder probes labeled with LICOR 800CW-maleimide probes in Tables 1 and 2, respectively have qualitatively similar dependencies on Bf. The probes differ mostly in protein expression, binding parameters (Kd, Ro and Rm) and stability. […] Although the non-responders are not characterized by bilirubin binding parameters, the emission spectrum of the 800CW-maleimide is sensitive to specific substitutions that can alter the LICOR 700DX-maleimide intensities. […]
row,Molecule,Qs (Rm/Ro)
1,B1,0.04
2,B2,0.11
3,B3,0.17
4,B4,0.03
5,B5,0.52
6,B6,0.36
7,B7,0.15
8,B8,0.14
9,B9,0.27
10,B10,0.48
11,B11,0.21
12,B12,0.29

# Same assay, conditions: effect of fluorophore (cysteine) position; responder probe labeled with 700DX-maleimide
row,Molecule,Kd [nM]
1,B1,14
2,B2,41
3,B3,25
4,B4,13
5,B5,29
6,B6,21
7,B7,16
8,B8,44
9,B9,12
10,B10,22
11,B11,30
12,B12,25

# Same assay, conditions: free Bf sensor with non-responder Mut:SEQ ID NO:1 B-73C in aqueous buffer; excitation 660 nm, 700/805 ratio; fit of equation 1 (FIG. 2)
row,Molecule,Kd [nM]
1,B1,12.4 ± 0.4

# Same assay, conditions: free Bf sensor, fit of equation 1 (FIG. 2)
Molecule,Qs which is Rm/Ro,Rm,Ro
B1,0.139±0.007,0.42,3.02

# Biological target: Albumin (Homo sapiens, UniProt P02768)
# Sequence (P02768 25-609): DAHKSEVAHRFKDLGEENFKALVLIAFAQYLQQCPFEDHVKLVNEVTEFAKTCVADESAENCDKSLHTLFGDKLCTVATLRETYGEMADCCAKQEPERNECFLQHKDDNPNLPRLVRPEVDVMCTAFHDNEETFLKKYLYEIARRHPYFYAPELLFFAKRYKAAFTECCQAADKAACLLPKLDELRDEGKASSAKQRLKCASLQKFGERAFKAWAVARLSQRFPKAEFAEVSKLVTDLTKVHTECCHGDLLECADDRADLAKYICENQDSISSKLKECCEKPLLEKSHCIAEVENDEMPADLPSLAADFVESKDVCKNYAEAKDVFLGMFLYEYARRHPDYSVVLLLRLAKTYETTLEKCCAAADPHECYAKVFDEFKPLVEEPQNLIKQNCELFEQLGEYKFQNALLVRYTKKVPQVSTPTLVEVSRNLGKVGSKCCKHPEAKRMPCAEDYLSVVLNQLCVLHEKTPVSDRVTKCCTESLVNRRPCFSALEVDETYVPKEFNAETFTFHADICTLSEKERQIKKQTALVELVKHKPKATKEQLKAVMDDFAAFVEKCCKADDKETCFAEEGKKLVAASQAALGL
# Assay: Drug displacement of bilirubin from albumin / interference, Bf measured with one-step cartridges
# Assay type: in vitro ADME
# Conditions: percent increase of Bf for the 3x drug concentration relative to no drug; negative value = interference with the Bf sensor
# Excerpt: Premature infants who are at high risk for bilirubin neurotoxicity are of particular concern because NICU infants frequently receive medications. [Hsieh et al. Medication use in the neonatal intensive care unit. Am J Perinatol.
row,Molecule,Displacement or Interference [%]
1,C[C@@H]1[C@H](O)[C@@H](C)/C=C/C=C/C=C/C=C/C=C/C=C/C=C/[C@H](O[C@@H]2O[C@H](C)[C@@H](O)[C@H](N)[C@@H]2O)C[C@@H]2O[C@](O)(C[C@@H](O)C[C@@H](O)[C@H](O)CC[C@@H](O)C[C@@H](O)CC(=O)O[C@H]1C)C[C@H](O)[C@H]2C(=O)O [Amphotericin B],199
2,Cc1nnc(SCC2=C(C(=O)O)N3C(=O)[C@@H](NC(=O)Cn4cnnn4)[C@H]3SC2)s1 [Cefazolin sodium salt],524
3,CO/N=C(\C(=O)N[C@@H]1C(=O)N2C(C(=O)O)=C(COC(C)=O)CS[C@H]12)c1csc(N)n1 [Cefotaxime],157
4,CC(C)(O/N=C(\C(=O)N[C@@H]1C(=O)N2C(C(=O)[O-])=C(C[n+]3ccccc3)CS[C@H]12)c1csc(N)n1)C(=O)O [Ceftazidime sodium salt],76
5,NS(=O)(=O)c1cc2c(cc1Cl)N=CNS2(=O)=O [Chlorothiazide],1626
6,NS(=O)(=O)c1cc(C(=O)O)c(NCc2ccco2)cc1Cl [Furosemide],820
7,Cc1onc(-c2ccccc2)c1C(=O)N[C@@H]1C(=O)N2[C@@H]1SC(C)(C)[C@@H]2C(=O)O [Oxacillin],616
